Reference: PMC5566574 (Frontiers in Immunology, 2017)
One block for each binder: values may come before it.

Legend:
human interleukin 23 [1] = target: T1, human interleukin 23 (Homo sapiens, UniProt Q9NPF7;P29460, saccharidic chain of the complex type at Asn 200 (GlcNAc2-Man3 core seen in the crystal)); assay: cell-based or functional assay
[2] = target: T2, cynomolgus monkey (cyno) IL23 (Macaca fascicularis (cynomolgus monkey), UniProt H6WS56;H6WS55); assay: SPR; species cross-reactivity of the monovalent nanobodies on cyno IL23 and mouse IL23; off-rates compared; set-up not described
T2 construct: interleukin 23 subunit p19, cynomolgus monkey; construct not described; p40 subunit, cynomolgus monkey; source: produced at Ablynx, Ghent/Zwijnaarde, Belgium

mouse (m) IL23 = target: T3, mouse (m) IL23 (Mus musculus (Mouse)., UniProt Q9EQ14;P43432); assay: as above
T3 construct: interleukin 23 subunit p19, mouse; p40 subunit, mouse; source: bought: R&D Systems Inc
T3 sequence (Q9EQ14 22-196, chain 1 of 2): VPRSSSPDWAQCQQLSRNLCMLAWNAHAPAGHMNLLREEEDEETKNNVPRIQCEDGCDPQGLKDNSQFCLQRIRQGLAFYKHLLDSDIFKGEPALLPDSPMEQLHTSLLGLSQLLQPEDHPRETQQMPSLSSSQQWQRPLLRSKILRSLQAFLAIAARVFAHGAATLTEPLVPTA
T3 sequence (P43432 23-335, chain 2 of 2): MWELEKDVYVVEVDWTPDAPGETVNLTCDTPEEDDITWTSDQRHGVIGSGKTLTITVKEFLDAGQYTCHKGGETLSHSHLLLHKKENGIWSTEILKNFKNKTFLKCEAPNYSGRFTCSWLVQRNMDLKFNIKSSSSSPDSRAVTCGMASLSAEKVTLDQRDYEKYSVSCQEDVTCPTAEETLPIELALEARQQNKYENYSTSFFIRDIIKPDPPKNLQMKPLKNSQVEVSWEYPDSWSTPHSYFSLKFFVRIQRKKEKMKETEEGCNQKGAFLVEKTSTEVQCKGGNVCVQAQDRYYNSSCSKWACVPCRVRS

human interleukin 23 [3] = target: T1, human interleukin 23; assay: SPR; Biacore T100; hIL23 covalently bound to a CM5 chip via amine coupling; purified nanobodies 1 to 300 nM injected for 4 min at 45 µl/min; details: both partners purified
[4] = target: T4, p40 subunit of human interleukin 23 (human, UniProt P29460, saccharidic chain of the complex type at Asn 200 (GlcNAc2-Man3 core seen in the crystal)); assay: crystal structure; hIL23 with nanobodies 37D5, 124C4 and 22E11; sitting drop, 277 K, 16.5% PEG 20 K, 0.1 M MES pH 5.9; two complexes per asymmetric unit; PDB 4GRW; details: both partners purified
T4 construct: p40 subunit shared by IL12 and IL23, human; never handled apart from p19; also called IL12-shared p40 subunit; source: bought as part of hIL23 (R&D Systems Inc. or eBioscience)

[5] = target: T5, biotinylated human interleukin 23 (human, UniProt Q9NPF7;P29460, biotin (Sulfo-NHS-LC-Biotin; sites not stated) | biotin (Sulfo-NHS-LC-Biotin; sites not stated)); assay: AlphaScreen or HTRF; serial dilutions of purified nanobody (250 nM to 1 pM) preincubated with 500 pM biotinylated hIL23 or 3 nM biotinylated hIL12; IL23R or IL12Rβ1 on acceptor beads via an antihuman Fc monoclonal antibody; streptavidin donor beads; 1 h at room temperature; details: both partners purified
T5 construct: interleukin 23 subunit p19, human; p40 subunit shared by IL12 and IL23, human; also called biotinylated hIL23; source: bought: eBioscience; biotinylated using Sulfo-NHS-LC-Biotin (Pierce)

human interleukin 12 = human interleukin 12 (human, UniProt P29459;P29460); assay: cell-based or functional assay
[6] = target: T6, biotinylated human interleukin 12 (human, UniProt P29459;P29460, biotin (Sulfo-NHS-LC-Biotin; sites not stated) | biotin (Sulfo-NHS-LC-Biotin; sites not stated)); assay: AlphaScreen or HTRF; serial dilutions of purified nanobody (250 nM to 1 pM) preincubated with 500 pM biotinylated hIL23 or 3 nM biotinylated hIL12; IL23R or IL12Rβ1 on acceptor beads via an antihuman Fc monoclonal antibody; streptavidin donor beads; 1 h at room temperature; details: both partners purified
T6 construct: p35 subunit of IL12, human; p40 subunit shared by IL12 and IL23, human; also called biotinylated hIL12; source: bought: R&D Systems Inc; biotinylated using Sulfo-NHS-LC-Biotin (Pierce)

[7] = target: T7, p40 subunit of human interleukin 23 (human, UniProt P29460 23-328, saccharidic chain of the complex type at Asn 200 (GlcNAc2-Man3 core seen in the crystal)); assay: crystal structure; hIL23 with nanobodies 37D5, 124C4 and 22E11; sitting drop, 277 K, 16.5% PEG 20 K, 0.1 M MES pH 5.9; two complexes per asymmetric unit; PDB 4GRW; details: both partners purified
T7 construct: p40 subunit shared by IL12 and IL23, human; never handled apart from p19; also called IL12-shared p40 subunit; source: bought as part of hIL23 (R&D Systems Inc. or eBioscience)
T7 sequence (looked up): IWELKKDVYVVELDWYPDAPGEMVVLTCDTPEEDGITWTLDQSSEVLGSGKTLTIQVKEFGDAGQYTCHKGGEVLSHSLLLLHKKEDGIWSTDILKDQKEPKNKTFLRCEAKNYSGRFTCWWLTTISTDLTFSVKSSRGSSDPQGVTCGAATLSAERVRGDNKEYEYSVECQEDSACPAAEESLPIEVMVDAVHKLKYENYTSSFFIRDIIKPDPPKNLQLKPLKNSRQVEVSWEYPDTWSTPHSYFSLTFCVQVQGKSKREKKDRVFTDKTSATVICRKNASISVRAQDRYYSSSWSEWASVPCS

[8] = target: T8, biotinylated human interleukin 23 (human, UniProt Q9NPF7 20-189; P29460 23-328, biotin (Sulfo-NHS-LC-Biotin; sites not stated) | biotin (Sulfo-NHS-LC-Biotin; sites not stated)); assay: AlphaScreen or HTRF; serial dilutions of purified nanobody (250 nM to 1 pM) preincubated with 500 pM biotinylated hIL23 or 3 nM biotinylated hIL12; IL23R or IL12Rβ1 on acceptor beads via an antihuman Fc monoclonal antibody; streptavidin donor beads; 1 h at room temperature; details: both partners purified
T8 construct: interleukin 23 subunit p19, human; p40 subunit shared by IL12 and IL23, human; also called biotinylated hIL23; source: bought: eBioscience; biotinylated using Sulfo-NHS-LC-Biotin (Pierce)
T8 sequence (looked up) 1: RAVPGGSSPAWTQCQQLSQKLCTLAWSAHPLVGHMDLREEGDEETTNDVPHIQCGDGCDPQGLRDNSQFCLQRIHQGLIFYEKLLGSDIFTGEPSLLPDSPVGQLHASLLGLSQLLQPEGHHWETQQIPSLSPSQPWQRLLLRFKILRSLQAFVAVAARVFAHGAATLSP
T8 sequence (looked up) 2: T7 sequence (looked up)

IL12Rβ-Fc chimera = target: T9, IL12Rβ-Fc chimera (human, UniProt P42701 24-545); assay: as above; details: both partners purified
T9 construct: interleukin 12 receptor subunit beta 1, human; The materials name it 'IL12Rβ-Fc chimera'; the assay and results name IL12Rβ1 / hIL12Rβ1; also called IL12Rβ1; hIL12Rβ1; source: bought: R&D Systems Inc

B3: nanobody 124C4 (VHH)
VHH: EVQLVESGGGLVQPGGSLRLSCAASGFTLDDYAIAWFRQAPGKEREGVSGIDSGDGSAYYADSVKGRFTISSDNAKNTVYLQMNSLRPEDTAVYYCARVRTGWGLNAPDYAMDYWGKGTLVTVSS
notes: nanobody 124C4 (llama VHH); both add C-terminal c-myc and hexa-histidine tags; also called p19− nanobody 124C4; source: E. coli TG1, periplasmic extract (screening); purified (Ni-NTA; Superdex75 for crystallization); not shown: c-myc, C-terminal, kept
binding result [2]: binds
binding result (mouse (m) IL23): binds
Kd (human interleukin 23 [3]): 3.3 nM
koff (human interleukin 23 [3]): 0.00033 s⁻¹
kon (human interleukin 23 [3]): 100000 M⁻¹ s⁻¹
binding result [4]: binds

B4: p19 subunit of human interleukin 23 (natural protein, UniProt Q9NPF7 20-189, looked up)
chain: T8 sequence (looked up) 1
notes: interleukin 23 subunit p19, human; never handled apart from p40; also called IL23p19; hIL23 p19 subunit; source: bought as part of hIL23 (R&D Systems Inc. or eBioscience)
binding result [7]: binds

B5: hIL23 receptor (R)-fragment crystallizable region (Fc) (Fc fusion, human, UniProt Q5VWK5 24-355, looked up)
chain: GITNINCSGHIWVEPATIFKMGMNISIYCQAAIKNCQPRKLHFYKNGIKERFQITRINKTTARLWYKNFLEPHASMYCTAECPKHFQETLICGKDISSGYPPDIPDEVTCVIYEYSGNMTCTWNAGKLTYIDTKYVVHVKSLETEEEQQYLTSSYINISTDSLQGGKKYLVWVQAANALGMEESKQLQIHLDDIVIPSAAVISRAETINATVPKTIIYWDSQTTIEKVSCEMRYKATTNQTWNVKEFDTNFTYVQQSEFYLEPNIKYVFQVRCQETGKRYWQPWSSLFFHKTPETVPQVTSKAFQHDTWNSGLTVASISTGHLTSDNRGDIG
notes: interleukin 23 receptor, human; also called hIL23R-Fc; source: bought: R&D Systems Inc
binding result [8]: binds

B6: biotinylated human interleukin 12 (complex)
chain 1: RNLPVATPDPGMFPCLHHSQNLLRAVSNMLQKARQTLEFYPCTSEEIDHEDITKDKTSTVEACLPLELTKNESCLNSRETSFITNGSCLASRKTSFMMALCLSSIYEDLKMYQVEFKTMNAKLLMDPKRQIFLDQNMLAVIDELMQALNFNSETVPQKSSLEEPDFYKTKIKLCILLHAFRIRAVTIDRVMSYLNAS
chain 2: T7 sequence (looked up)
modifications: biotin (Sulfo-NHS-LC-Biotin; sites not stated) | biotin (Sulfo-NHS-LC-Biotin; sites not stated)
notes: p35 subunit of IL12, human; p40 subunit shared by IL12 and IL23, human; also called biotinylated hIL12; source: bought: R&D Systems Inc; biotinylated using Sulfo-NHS-LC-Biotin (Pierce)
binding result (IL12Rβ-Fc chimera): binds

Second part, the binder after the results:

IC50 of inhibition of mIL22 secretion by mouse splenocytes stimulated with 19 pM hIL23; blocks IL23/IL23R (human interleukin 23 [1]): 19 pM
binding result [2]: binds
binding result (mouse (m) IL23): no binding
Kd (human interleukin 23 [3]): 0.6 nM
koff (human interleukin 23 [3]): 0.00018 s⁻¹
kon (human interleukin 23 [3]): 320000 M⁻¹ s⁻¹
binding result [4]: binds
IC50 [5]: 0.11 nM
B1: nanobody 37D5 (VHH)
VHH: EVQLVESGGGLVQPGGSLRLSCAASGFTLDYLAIGWFRQAPGKEREGVSCVSSSGQYTYYADSVKGRFTISRDNAESTVYLQMNSLKPEDTAVYYCATDPECYRVRGYYNGEYDYWGQGTQVTVSS
notes: nanobody 37D5 (llama VHH); both add C-terminal c-myc and hexa-histidine tags; also called p19+ nanobody 37D5; source: E. coli TG1, periplasmic extract (screening); purified (Ni-NTA; Superdex75 for crystallization); not shown: c-myc, C-terminal, kept

IC50 of block of hIL12-dependent proliferation of PHA blasts (4 pM hIL12 for stimulation; data not shown) (human interleukin 12): 95 pM
IC50 of inhibition of mIL22 secretion by mouse splenocytes stimulated with 19 pM hIL23 (human interleukin 23 [1]): 186 pM
binding result [2]: binds
binding result (mouse (m) IL23): no binding
koff (human interleukin 23 [3]): 0.00023 s⁻¹
binding result [4]: binds
IC50 [6]: 1.3 nM
B2: nanobody 22E11 (VHH)
VHH: EVQLVESGGGLVQAGGSLRLSCAASGRTFSWSAVGWFRQAPGKEREFVAAIRWSGGSPYYADSVKDRFTISRDNAKNTVYLQMNSLRPEDTAVYLCGETSLFPTSRGSHYDTWGQGTQVTVSS
notes: nanobody 22E11 (llama VHH); both add C-terminal c-myc and hexa-histidine tags; also called p40+ nanobody 22E11; source: E. coli TG1, periplasmic extract (screening); purified (Ni-NTA; Superdex75 for crystallization); not shown: c-myc, C-terminal, kept
